# Test results: the DeepSol protein solubility set
# Test: soluble on expression in E. coli; label from the status in PepcDB or PDB records
row,Sequence,soluble on expression in E. coli
1,MKRVVVTGIGMINALGLDKESSFKAICNGESGVNKITLFDATDFPVQIAAEVKNFDPLEVVDGKEVKKIDRFIQLGIKAAREAMQDAGFSEELDKEEFGIVSASGIGGLPNIEKNSIICSERGPRKISPFFIPSALVNMLGGLISIEHGLKGPNISCVTACAAGTHAIGEAYKSIALGNAKKMLVIGAEAAICPVGIGGFASMKALSTRNEDPQHASRPFDKERDGFVMGEGAGALVFEEYEEAKKRGATIYAELIGFGESADAHHITSPTLDGPLRAMKKALNMAGNPKVDYINAHGTSTPVNDKNETAAIKELFGNNIPLISSTKGQTGHCLGAAGAIEAVVSVMVLRDGVVPPTINQLVKDDECDLDYIPNISRKVDLKVVMSNSFGFGGTNGCVVFKKVD,soluble
2,MFARLANPAHFKPLTGSHITRAAKRLYHPKVIDHYTNPRNVGSMDKSLANVGTGIVGAPACGDVIKLQIQVNDKSGIIENVKFKTFGCGSAIASSSYMTELVRGMSLDEAVKIKNTEIAKELSLPPVKLHCSMLAEDAIKAAIKDYKTKRNPSVLH,not soluble
3,MSLFPSSEVEAKRTTLNLELESNTDRLLQEKDDLLPQSVTNSSDEGTPFAQVEGASDDNTAEQDSDKPGASVADADTKPVDPEWKTITVASGDTLSTVFTKAGLSTSAMHDMLTSSKDAKRFTHLKVGQEVKLKLDPKGELQALRVKQSELETIGLDKTDKGYSFKREKAQIDLHTAYAHGRITSSLFVAGRNAGLPYNLVTSLSNIFGYDIDFALDLREGDEFDVIYEQHKVNGKQVATGNILAARFVNRGKTYTAVRYTNKQGNTSYYRADGSSMRKAFIRTPVDFARISSRFSLGRRHPILNKIRAHKGVDYAAPIGTPIKATGDGKILEAGRKGGYGNAVVIQHGQRYRTIYGHMSRFAKGIRAGTSVKQGQIIGYVGMTGLATGPHLHYEFQINGRHVDPLSAKLPMADPLGGADRKRFMAQTQPMIARMDQEKKTLLALNKQREGHHHHHH,soluble
4,MKTVTEFQNKNILVLGIAKSGYAAATLLQKLGANVIVNDGKPLAENVLAAELQAKGMDVVCGGHPLELLERNISLVVKNPGIPYSNPILVAAKEKQIPIVTEVELAYRISEAPFVGITGSNGKTTTTMLTFEMLKEGQKHPVIAGNIGTVACEVAQDAKENEVVVTELSSFQLMGVELFQPKIAAFLNLFEAHLDYHGTKKEYGLAKANIFKNQTENDYSVINADDADVMALSAYSKGQKVLFSTTKEIEDGACIKDNALYFKAEKVVEVDDIVLPGQHNLENILAAMSIAKLLGVSNEAITAVLKRFTGVKHRLEYVTTINNRKFYNDSKATNMLATEKALSAFTQPTVLLAGGLDRGNEFDDLIPYFKNVKAIVTFGQTAPKLVRAAEKAGLDTIESVDTLDEAVVKAYAHSTDGDVILLSPACASWDQFKTFEERGDIFIQAVHKLI,not soluble
5,MSITHQPANLTLAQIQQMIGGVMLLSQHSPLHRRYVVAEWLQRILPAFELNQFCYYEDEHGRPIAFCNWAFVSEQIRDELLSGVREISPSDWRSGQQIYIPEMIAPFGHGREVVNDLRRRVFLPWQGQKVCTVRGKVDAQNDRCIRKVQWFSI,not soluble
6,MPKPYIAINMADLKNEPKTFEMFSAVGPKVCMVTARHPGFVGFQNHVQIGVLPFGERFGGAKMDMTKESSTVRVLQYTMWKDWKDHEEMHRQNWSYLFRLCYSCASQMVWGPWEPIYEIKYADMPINTEMTDFTAVVGKKFAEGKPLEIPVISQPYGKRVVAFGEHTVIPGKEEQFEDAIIKTLEMFKRAPGFLGAMLLKEIGVSGIGSFQFGSKGFHQLLESPGSLEPDPNNVMYQAPEAKPTPPQYIVHVEWANLDALQFGMGRVLLSPEYREVHDEALDTLIYGPYIRIINPVMEGTFWREYLNE,soluble
7,MGSDKIHHHHHHMEMMRDAVQFEPADSRVTRPSFWSSLPERWTSDVEETLVCCHVRQETHDVKSFFFHSPDGRAFVFEPGQFITLELEIEGETINRCYTISSSPARPHTLSITVKRVPGGKVSNWLHDNVRPGTPIRVLGPAGEFTCARHPARKYLFLSAGSGITPLMSMSRAHHDLGEDRDIVFVHSARTPDDIIFSRELDLIASNHANFRTSFVCESVGARTSWPGVTGFLSLPLLKLIAPDFMEREIFTCGPAPYMKAVRDLLDEGGFDRRRYHEESFSFETLTADGPADAPAPDTGVASAPHGIADMAAFSVSFAKSRREIVCSSGQHVLEAARQSGVRLPASCTQGMCGTCKVKLVSGQVEMKHNGGIRQREIDQGMVLLCCSKPLSDLVIDK,not soluble
8,MIRELFEKEGFTLDEEQERKFSIYLQELLRWNKVHNLTSIKKPEEIVRRHFIDSVSVVRCFERIGLDLRGKHFADVGSGAGFPGVPLKIYLKDIKLTLIESVSKKCSFLEYLKIKLNEDYRVLCTRAEKVEEKFDVVLARALGEFEEVKEILEKLSIGYVFVYKGSKLKEEWLKDYKLCELSLSFMPKSYILWKKV,soluble
9,MGSDKIHHHHHHMQKDKIKTDWSHGENPEDYKCCVAFHGHDCPGLAVGYRAAQAALAALCGERAEDEELVAIVETDACGVDALQVLTGCTFGKGNLIYQDHGKHVFTLIERKSGRGVRVALKAGVMEMNERHLTLMEKVHQMTATPHETAEFWKIHSQKALEILQKPIETLFNIQPINRTLPPKARREPSRLCARCGEPAMGSKLVVLDGREVCRDCLQPEER,not soluble
10,MSFPLIFERSRKGRRGLKLVKAVPKAEDLIPKEHLREVPPRLPEVDELTLVRHYTGLSRRQVGVDTTFYPLGSCTMKYNPKLHEEAARLFADLHPYQDPRTAQGALRLMWELGEYLKALTGMDAITLEPAAGAHGELTGILIIRAYHEDRGEGRTRRVVLVPDSAHGSNPATASMAGYQVREIPSGPEGEVDLEALKRELGPHVAALMLTNPNTLGLFERRILEISRLCKEAGVQLYYDGANLNAIMGWARPGDMGFDVVHLNLHKTFTVPHGGGGPGSGPVGVKAHLAPYLPVPLVERGEEGFYLDFDRPKSIGRVRSFYGNFLALVRAWAYIRTLGLEGLKKAAALAVLNARYLKELLKEKGYRVPYDGPSMHEFVAQPPEGFRALDLAKGLLELGFHPPTVYFPLIVKEALMVEPTETEAKETLEAFAEAMGALLKKPKEWLENAPYSTPVRRLDELRANKHPKLTYFDEG,soluble
11,MTLDYIYHSGFAIEAEGVTVIIDYYKDSSETEHNRGIVHDYLLQRPGKLYVLATHFHPDHFNREILTWKEARPDIRYIFSKDILKSHRAKPEDATYIKKGETYEDETIRIEAFGSTDVGSSFLIHLQDWNIFHAGDLNNWHWSEESTEAEIRKANGDFLAEVKYLKEKAPKIDLALFPVDRRMGKDYMKGAKQFIEQIKTTIFVPMHFSEDYEGGNALRDFAENAGCRFVSITHRGESFEITK,not soluble
12,MGSDKIHHHHHHMIPTFVVWSQSMFNDAIVYDRYGPPAAVLTLKRLPLAPLAGGRVRVRMRFAPVNPSDLIPVTGAYRHRTRLPAVAGYEGLGEVVAAPYGSRLAAGQRVLPLRGGGTWQRFIDLDETWLVPVPPAVDDLLAARGYINPLTAMLMLKRWPVAGKHLVLTAASSSCASLLGQWALAMGARSVSGIIRSPQHRARLEQAGIYPILDTDRALMEKVSQHSDLVFDAVGGELANTLLSVLPGSSTLISYGLLSGRPLTQTRGSATVRKFHLREALPTLSVAAWRAAFDEIWQRLPTTSQPPAQRIALNDWRAAIAAAGQPGRGGKILLDFTAG,not soluble
13,MSGINARPTNSIFSNLCQIFSSLQGCLKTQTPFSDGLFSLKSPYRSIRKHRRIIMEVTISAIINGEFADQYGKRGSQFNENGMLI,not soluble
14,MAMTLAEKILAKASGNTQVSPGDIVMAKVETAMVHDITGPLSVNTLKKEGISKVWDNEKIVIPFDHQIPADSINAAENHILMRNFVKEQNIKHFYDIREGVCHQVLPEKGHIVPGTVVVGADSHTCTYGAFGAFATGIGSTDMAAAFATGELWFKVPET,not soluble
15,MSLKRTVDFSMFRCPLCDSSMDAASGKSLICTERGHTFDLSRHGYVNFLTKPVKTSYGAELFEARSRLIGECGFFDPLHDAIAELISHPKSGHEAFTILDSGCGEGSHLNALCGFDYAGKAAIGTGIDLSKDGILKASKAFKDLMWAVADVARAPFHDRQFDVVLSIFSPSNYAEFHRLLKNDGMLIKVVPRSDYLIELRQFLYTDSPRRTYSNTAAVERFTANAAHSRPVRLRYVKTLDQQAIHWLLKMTPLAWSAPKDRVSLLKEMKSADITVDVDILIGMKEGHHHHHH,soluble
16,GVTKEIRIPTLEECDVCHGSGAKPGTQPQTCPTCHGSGQVQMRQGFFAVQQTCPHCQGRGTLIKDPCNKCHGHGRVERS,soluble
17,MKKETLYVAFSTQKGGVGKTTFTVLVASYLYYLKGYNVAVVDCDYPQHSISAMRKRDAEQVNGDDYYKQLAFSQFKTLGKKAYPVLCSSPDEAIKTADEFLASAGSDYDVVFFDLPGTVNSEGVINSLSGVDYIFTPIAADRVVLESSLSFAVAINKLLVKNEACRLKGLHLFWNMVDGREKTDLYTLYEQTIGELELPLMKVFIPDTKRFKKELDAQRKTVFRSTLFPADKRLVKGSNIEELITEIAYLIKL,soluble
18,MSLAEGYQSEADLERELIDDLRRQGYEFLPAIKTPEAMLANVRVQLQALNDVQFSDGEWARFVETWLDKPSDGIVEKTRKIHDDYIHDFVFDDGRIQNIHLVDKKTLVRNKVQVIRQFVTTPALCATPPREGNFSGGEQLWDQFPSFGGVPVGRGGYNRYDVTILVNGLPLVQVELKRRGVAIREAFNQVHRYSKESFNSAHSLFKYLQLFVISNGTDTRYFANTTRRDKNSFDFTMHWAKADNTPIRDLKDFAATFFQKHTLLSVLLHYSVFDVSNTLLVMRPYQIAATERILWKIKSSHQAKTWSTPEGGGYIWHTTGSGKTLTSFKAARLGTELDFIDKVFFVVDRKDLDYQTMKEYQRFSPDSVNGSDSTAGLKRNLEKDDNRIIVTTIQKLNNLMKSEPDLPIYHKQVVFIFDECHRSQFGEAQKNLRKKFKRYLQFGFTGTPIFPENALGAETTASVFGRELHSYVITDAIRDEKVLKFKVDYNDVRPRFKAIETERDEKKLSAAENRQALLHPERIREITQYILTHYRQKTHRLQPGAKGFNALFAVSSVEAAKLYYEAFKTQQKDSAKPLKVATIFSYAANEAQDAVGDIADEGFEVSALNSSAKEFLNAAIADYNALFKTNFSVDSQGFQNYYRDLAKRVKGTDDSGKRLPADEQVDLLIVVGMFLTGFDAPTLNTLFVDKNLRYHGLLQAYSRTNRIFDATKTFGNIVTFRDLEQATIDAITLFGDKNTRNVVLEKSYREYMEGYTDALTGQARRGFVEVVQELQARFPDPAALEKEADKKAFVRLFGEYLRAENVLQNFDEFAALKALQSVNTGDPAAVEAFKAQHYLSDEDLAALQAIKLPPERTMQDYRSTYNDIRDWLRREQAGVEKEKSTIDWDDVVFEVDLLKSQEINLDYILELIFERNKETRSKAELVEEVRRVIRASLGHRAKESLVVDFINQTDLEQLAEGHHHHHH,soluble
19,MGHHHHHHSHMASRVRVTILFATETGKSEALAWDLGALFSCAFNPKVVCMDKYRLSCLEEERLLLVVTSTFGNGDCPGNGEKLKKSLFMLKELNNKFRYAVFGLGSSMYPRFCAFAHDIDQKLSHLGASQLTPMGEGDELSGQEDAFRSWAVQTFKAACETF,not soluble
20,NVKHAFVDVQLAALPKMAYAAVDFVDYRFDNKHWKSLNEICPEVGLKPYADFAVLEVPLYLNNKLDYQVWENFIKPAIATYKALGDSTNLFASTSSSDLQNDTYFALGYPLLESNIDAIHFNQTGATLTSVPVKDRIKVKNQSFWTLN,not soluble
21,MGIGNENKGFITASADALINWVRTGSLWPVTTGLACCAVEMMHAGAARYDLDRFGIVFRPSPRQSDVLIVAGTLCNKMAPALRQVYDQMPDPKWVISMGSCANGGGYYHYSYSVVRGCDRIVPVDIYVPGCPPTAEALVYGIIQLQNKIIRKDTIARK,not soluble
